Test results taken from the supplement of paper PMC9732359.
± gives the uncertainty stated by the source.

Assay: protein stability index of a GFP-peptide fusion (yeast GPS) (PSI 1-4); higher = more stable; sorted into four equal gates, so the index is relative within each strain
In short: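 The protein stability index of a peptide was calculated by multiplying its read frequency in each gate by that gate's number and adding the products. The peptides were tiled 17-residue stretches of yeast proteins, fused downstream of GFP on a Cherry-expressing plasmid and carried in yeast as a pooled library. Mid-log cultures in leucine-free medium were sorted into four equal gates by GFP/Cherry ratio, and each gate's plasmids were PCR-amplified and Illumina-sequenced.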

Sequence	protein stability index (doa10∆)	protein stability index (pdr5∆)	protein stability index (san1∆)	protein stability index (ubr1∆)
YKLVNKNKENNTFTWNH [RPN4]	2.65 ± 0.23	3.49 ± 0.27	3.09 ± 0.082	3.12 ± 0.21
TLTDILEDELYHTNPGH [RPN4]	3.04 ± 0.055	3.25 ± 0.049	3.1 ± 0.064	3.21 ± 0.043
MAISKNLPILKNHFRKH [RPL13A]	2.89 ± 0.1	2.89 ± 0.079	2.87 ± 0.081	2.54 ± 0.19
DVNALKFNNTQRESQIG [SNF12]	2.31 ± 0.092	2.75 ± 0.067	2.68 ± 0.077	3.12 ± 0.063
PLGKILLKGDNITLITS [SME1]	1.9 ± 0.093	3.12 ± 0.13	1.89 ± 0.16	3.07 ± 0.061
RLLEKSELPDIYSRDIG [SNF2]	3.12 ± 0.14	3.37 ± 0.13	2.96 ± 0.084	3.21 ± 0.17
WKEVMFDPSKDVLINEL [CDC53]	2.41 ± 0.074	1.87 ± 0.052	1.8 ± 0.12	1.91 ± 0.073
NTGIVSSTTGMSYVVRI [RPT3]	3.17 ± 0.11	3.04 ± 0.19	3.31 ± 0.11	3.25 ± 0.09
ALHYLVPFIIAAMVIMH [COB]	1.73 ± 0.066	1.29 ± 0.061	1.61 ± 0.15	1.4 ± 0.055
AFYQKGNKLVELMRIIS [SMC1]	1.59 ± 0.27	1.15 ± 0.19		1.38 ± 0.25
EAGLQLCRQGHNMLNLL [PRP8]	2.24 ± 0.079	2.29 ± 0.12	2.07 ± 0.14	1.99 ± 0.06
VDPIQSVKGKVVIDAFR [RPN11]	2.59 ± 0.072	2.65 ± 0.092	2.1 ± 0.093	2.26 ± 0.081
VDPKRLAMVIIKEFVDD [DSN1]	3.33 ± 0.1	3.3 ± 0.1	3.31 ± 0.096	3.1 ± 0.066
DVNIVNRRLVYSRILKS [YCG1]	1.36 ± 0.1	1.16 ± 0.079	1.38 ± 0.17	1.21 ± 0.059
EAAAAEEGEEEEVKEEV [RPS0B]	3.24 ± 0.13	3.48 ± 0.049	3.19 ± 0.069	3.37 ± 0.11
EIQPRANIQLDFPELKP [FAS2]	3.13 ± 0.064	3.11 ± 0.063	3.12 ± 0.076	3.26 ± 0.042
FEYEGVQDIIGNGKLSE [RPN1]		2.85 ± 0.18	3.21 ± 0.26	2.74 ± 0.1
LSLYSTDLENSSLFQEK [ECM29]	2.95 ± 0.069	2.81 ± 0.077	3 ± 0.053	2.77 ± 0.046
KAAISFGAKPEEQKSSD [YJL041W/NSP1]	3.12 ± 0.13	2.94 ± 0.2	3.5 ± 0.17	3.1 ± 0.12
IDMIADENGTNSAIANE [RPC37]				3.17 ± 0.11
VERIQKMIEKIEKMSTI [YIL149C/MLP2]	3.13 ± 0.29	3.41 ± 0.14	2.81 ± 0.19	
VFSALKNLISRINTLPQ [ECM29]	3.06 ± 0.12	2.36 ± 0.091	1.76 ± 0.22	2.71 ± 0.051
IGFTIKEYENHSGELMR [SMC1]	2.53 ± 0.14	2.79 ± 0.059	2.06 ± 0.12	2.86 ± 0.14
PTKLLVSEVAKIMQEAT [PRE8]	2.63 ± 0.067	2.58 ± 0.085	2.72 ± 0.11	2.73 ± 0.062
NFNSSLHKRQQFSESTH [YJL039C/NUP192]	3.12 ± 0.12	3.14 ± 0.08	2.82 ± 0.063	3.03 ± 0.061
QEMIEISNVIKPNQTIM [SRP54]	2.62 ± 0.23	2.21 ± 0.079		1.96 ± 0.1
LEEDSKKVNGTSYKKWS [PRP8]	3.3 ± 0.14	3.41 ± 0.15	3.24 ± 0.075	3.03 ± 0.092
